According to paper PMC9468648, “Profiling of transcriptional regulators associated with starch biosynthesis in sorghum (Sorghum bicolor L.)”:

Legend:
Experiment in all cases: EMSA; Chemiluminescent EMSA Kit (Beyotime) per manufacturer's instructions; buffer, salt, pH and temperature not stated
Conditions in all cases: protein: recombinant; tags: His (pET32a fusion); chain copies: 2; label: 5' biotin; blunt
[1] = molecular target: T1, SORBI_3003G105600 (NAC TF) (UniProt C5XF21 1-400)
T1 sequence: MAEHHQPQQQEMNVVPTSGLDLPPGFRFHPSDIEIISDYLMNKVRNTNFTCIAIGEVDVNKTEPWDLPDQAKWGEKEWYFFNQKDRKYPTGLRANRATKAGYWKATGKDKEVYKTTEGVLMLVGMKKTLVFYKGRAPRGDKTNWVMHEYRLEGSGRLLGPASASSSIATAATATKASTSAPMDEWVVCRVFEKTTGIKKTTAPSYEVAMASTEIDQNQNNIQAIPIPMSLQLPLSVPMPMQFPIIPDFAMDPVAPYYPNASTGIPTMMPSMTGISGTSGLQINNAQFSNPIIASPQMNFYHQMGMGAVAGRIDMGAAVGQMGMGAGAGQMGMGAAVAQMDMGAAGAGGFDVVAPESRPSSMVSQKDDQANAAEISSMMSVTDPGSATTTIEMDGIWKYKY

[2] = molecular target: T2, SORBI_3005G056300 (NAC TF) (UniProt C5Y5Q6 1-283)
T2 sequence: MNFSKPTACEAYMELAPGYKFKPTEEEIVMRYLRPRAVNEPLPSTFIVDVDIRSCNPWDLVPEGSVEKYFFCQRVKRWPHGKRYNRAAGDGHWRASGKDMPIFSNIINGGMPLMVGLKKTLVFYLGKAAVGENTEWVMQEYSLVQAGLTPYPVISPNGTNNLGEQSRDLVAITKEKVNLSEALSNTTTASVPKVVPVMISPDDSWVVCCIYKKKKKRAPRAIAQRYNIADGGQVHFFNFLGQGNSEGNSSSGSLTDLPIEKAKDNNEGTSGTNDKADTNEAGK

[3] = molecular target: T3, SORBI_3009G086800 (NAC TF) (UniProt C5YV73 1-402)
T3 sequence: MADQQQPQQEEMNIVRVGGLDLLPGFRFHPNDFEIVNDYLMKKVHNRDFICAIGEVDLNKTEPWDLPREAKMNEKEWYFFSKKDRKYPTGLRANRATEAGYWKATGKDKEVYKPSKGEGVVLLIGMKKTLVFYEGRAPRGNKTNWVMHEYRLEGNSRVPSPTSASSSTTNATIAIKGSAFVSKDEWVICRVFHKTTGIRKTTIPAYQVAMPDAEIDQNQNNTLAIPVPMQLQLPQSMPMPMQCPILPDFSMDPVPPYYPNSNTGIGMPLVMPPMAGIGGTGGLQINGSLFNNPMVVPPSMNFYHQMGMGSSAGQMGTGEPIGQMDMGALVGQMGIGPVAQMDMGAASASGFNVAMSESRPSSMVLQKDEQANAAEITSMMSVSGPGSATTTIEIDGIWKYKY

Measured: binding result

B1: 4x CACGCAA repeat probe (dsDNA)
DNA 1: TCACGCAACACGCAACACGCAACACGCAAG
DNA 2: CTTGCGTGTTGCGTGTTGCGTGTTGCGTGA
binds: [1] | [2] | [3]
